Test results from patent US20260085106A1 (AUTOLUS, published 2026).

Molecular target: T1, caffeine dAb
T1 construct: Llama-derived
Test: peptide phage display panning on the anti-caffeine sdAb, method of Example 6

T1 sequence (VHH, as listed by the source): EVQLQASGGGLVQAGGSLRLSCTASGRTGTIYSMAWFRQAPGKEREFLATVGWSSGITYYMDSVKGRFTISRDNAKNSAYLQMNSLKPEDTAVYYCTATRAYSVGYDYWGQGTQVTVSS

Binder | binding result
HDSPTAA (also called HDSPTAA) [SEQ ID NO 14] | binds
YPDVPLA (also called YPDVPLA) [SEQ ID NO 15] | binds
ACTYLNSAKC [SEQ ID NO 16] | binds
HTLNKPP (also called HTLNKPP) [SEQ ID NO 12] | binds
DLSIGNH (also called DLSIGNH) [SEQ ID NO 13] | binds
